B1: Ribonuclease, P00648 (parent)
chain: MMKMEGIALKKRLSWISVCLLVLVSAAGMLFSTAAKTETSSHKAHTEAQVINTFDGVADYLQTYHKLPDNYITKSEAQALGWVASKGNLADVAPGKSIGGDIFSNREGKLPGKSGRTWREADINYTSGFRNSDRILYSSDWLIYKTTDHYQTFTKIR

Variants of: B1
Details: Bacillus amyloliquefaciens; pH 6.3; 25 °C; Urea; Fluorescence; MES 50 micro M; reversible: yes; structure 1BNI; whole UniProt chain shown
In the case of I98V, the “ddG of mutation (higher = less stable)” value is reported as 1.8 kcal/mol. For I123V, the “ddG of mutation (higher = less stable)” value was 0.82 kcal/mol. With Y60A Y64A the “ddG of mutation (higher = less stable)” value was 5 kcal/mol. With Y125F the “ddG of mutation (higher = less stable)” value was 1.35 kcal/mol. With I156V the “ddG of mutation (higher = less stable)” value was 0.76 kcal/mol. With T73G the “ddG of mutation (higher = less stable)” value was 1.42 kcal/mol. With T73A the “ddG of mutation (higher = less stable)” value was 1.93 kcal/mol. With N131A the “ddG of mutation (higher = less stable)” value was 2.02 kcal/mol. With V83T the “ddG of mutation (higher = less stable)” value was 1.15 kcal/mol. With N124A the “ddG of mutation (higher = less stable)” value was 1.66 kcal/mol. With K109R the “ddG of mutation (higher = less stable)” value was 0.43 kcal/mol. With I51V the “ddG of mutation (higher = less stable)” value was 0.67 kcal/mol. For L80Q, the “ddG of mutation (higher = less stable)” value was 1.3 kcal/mol. For T63S Y64A, the “ddG of mutation (higher = less stable)” value was 2.55 kcal/mol. For I135V, the “ddG of mutation (higher = less stable)” value was 1.34 kcal/mol. For I72V, the “ddG of mutation (higher = less stable)” value was 1.12 kcal/mol. With V92T the “ddG of mutation (higher = less stable)” value was 2.32 kcal/mol. With V92A the “ddG of mutation (higher = less stable)” value was 1.72 kcal/mol. With H65Q the “ddG of mutation (higher = less stable)” value was 1.44 kcal/mol. For N105A, the “ddG of mutation (higher = less stable)” value was 2.17 kcal/mol. With S139A the “ddG of mutation (higher = less stable)” value was 2.8 kcal/mol. For E76G, the “ddG of mutation (higher = less stable)” value was 1.76 kcal/mol. For T152V, the “ddG of mutation (higher = less stable)” value was 2.25 kcal/mol. With T53G the “ddG of mutation (higher = less stable)” value was 1.21 kcal/mol. In the case of T53A, the “ddG of mutation (higher = less stable)” value is reported as 2.15 kcal/mol. In the case of L61A, the “ddG of mutation (higher = less stable)” value is reported as 4.32 kcal/mol. For Y64A, the “ddG of mutation (higher = less stable)” value was 2.43 kcal/mol. With V57A the “ddG of mutation (higher = less stable)” value was 3.4 kcal/mol. In the case of V57T, the “ddG of mutation (higher = less stable)” value is reported as 2.48 kcal/mol. For I102V, the “ddG of mutation (higher = less stable)” value was 0.3 kcal/mol. With Y60A the “ddG of mutation (higher = less stable)” value was 3.71 kcal/mol. In the case of T63S, the “ddG of mutation (higher = less stable)” value is reported as 1.68 kcal/mol. For T63R, the “ddG of mutation (higher = less stable)” value was -0.47 kcal/mol. With S138A the “ddG of mutation (higher = less stable)” value was 1.94 kcal/mol. With T146V the “ddG of mutation (higher = less stable)” value was 2.99 kcal/mol. In the case of N52A, the “ddG of mutation (higher = less stable)” value is reported as 1.85 kcal/mol.

Reference: FireProtDB (doi:10.1016/0022-2836(92)90563-y)
